Assay results published in article PMC2425480 (Nucleic Acids Research, 2008).

Target: the molecule itself
Experiment: crystal structure

B1: Sulfolobus solfataricus MCM protein N-terminal domain (residues 1–268) (domain or fragment, UniProt Q9UXG1 1-268, looked up)
chain: MEIPSKQIDYRDVFIEFLTTFKGNNNQNKYIERINELVAYRKKSLIIEFSDVLSFNENLAYEIINNTKIILPILEGALYDHILQLDPTYQRDIEKVHVRIVGIPRVIELRKIRSTDIGKLITIDGILVKVTPVKERIYKATYKHIHPDCMQEFEWPEDEEMPEVLEMPTICPKCGKPGQFRLIPEKTKLIDWQKAVIQERPEEVPSGQLPRQLEIILEDDLVDSARPGDRVKVTGILDIKQDSPVKRGSRAVFDIYMKVSSIEVSQKV
stoichiometry N: 6
